Results reported in patent publication US12065505B2, “Antibodies and antigen binding peptides for factor XIa inhibitors and uses thereof” (Bristol-Myers Squibb Company, priority 2021, dated 2024).
Numbering of substitutions follows the chain as printed. Where two headings read alike, the source gives them in different places.

Legend:
[1] = tested on: rabbit plasma clotting time (aPTT); assay: In vivo reversal of Compound A anticoagulant effect by Fab, rabbit plasma aPTT; details: Compound A 1 mg/kg IV, mean of 3 animals
Protocol: In vivo experiments were conducted in accordance with the regulations of the Animal Care and Use Committee of the Bristol-Myers Squibb Company. Rabbits (male New Zealand White, 2 to 4 kg) were instrumented with indwelling catheters in the central ear artery for blood sampling and marginal ear vein for substance administration. Compound A was administered as a constant intravenous infusion at a dose of 1.0 mg/kg over 10 minutes. Beginning 20 minutes after the Compound A infusion was complete, the antibody Fab fragment 26D5-75616-348-F10-Fab-SHORT was administered as a constant intravenous infusion at a dose of 160 mg/kg over 10 minutes. […]
The anticoagulant effects of Compound A were measured in activated partial thromboplastin time (aPTT). The aPTT was determined using ACTIN® FS (Siemens/Dade-Behring) following the directions in the package insert. […] The clotting time was the time in seconds from the moment calcium chloride was added until a clot was detected. […]

[2] = Competitive TR-FRET assay, mAbs (T0 and T24); type: binding; details: 37° C.; difference between T0 and T24 IC50s; IgG1f mAb format
Protocol: A competitive TR-FRET (time-resolved fluorescence resonance energy transfer) assay was developed to rank-order the dissociation of α-Compound A mAbs from Compound A as equilibrium is reached at 37° C. The assay buffer was HBS-N (10 mM HEPES, 150 mM NaCl, pH 7.4; GE Healthcare), 0.1% (w/v) BSA (bovine serum albumin; Sigma), 2% DMSO (dimethyl sulfoxide; Sigma). All reagents were prepared in assay buffer and dispensed in equal volumes into white 384 microplates with final volume of 20 μl per well at the following final concentrations: 4 nM COMPOUND 5, the biotinylated analog of COMPOUND 2, a 100 0.1 nM 7-pt titration of human α-Compound A antibodies, 0.1 nM europium-labeled α-mouse IgG (LANCE Eu-W1024; PerkinElmer), 5 nM streptavidin-D2 (Cisbio), and 4 nM mAb 26D5 VH_A10G_Y33A_S53P_M89V_G95A; VK_W32N_H38Q (P1-075621, the second-round optimization parent 26D5-295-B08 formatted with mouse IgG Fc). COMPOUND 5 and α-Compound A antibody titrations were added first to the microplate, and were subjected to an initial incubation at 37° C., 1000 rpm, for one hour to facilitate antibody binding to the compound. After the initial incubation period, the europium α-mouse IgG, streptavidin-D2, and 26D5-mouse IgG (P1-075621) were added sequentially, then the plate was returned to 37° C., 1000 rpm incubation. Microplates were read using a Perkin Elmer EnVision plate reader, and the measured FRET signal was defined as [665 nm]/[620 nm]*10,000. Microplates were read at 30 minutes (T0) and after 24 hour (T24) intervals. […]

[3] = SPR (Biacore) Protein A mAb capture, Compound A injected; details: 37° C., binding to Compound A, for rank ordering only
Protocol: The binding of hybridoma expressed 26D5 parent mAb (VH SEQ ID NO: 83 and VL SEQ ID NO: 98 in IgG1 f format)(P1-072224) and affinity matured mAbs to Compound A was examined by SPR (Biacore™) using a protein A capture method. The running buffer was 1×PBS (phosphate buffered saline, pH 7.4) with 0.05% Tween 20 and 2% DMSO. Binding experiments were carried out at 37° C. Protein A was coated on a CM5 S-series sensor chip (Cytiva, Cat. No. 29149603) at high density (2000+ RUs of protein A). The immobilization of protein A was carried out using the standard amine coupling immobilization procedure recommended by the manufacturer. The affinity matured antibody was then captured at a concentration of 2 ug/mL on the protein A surface at a flow rate of 3 uL/min for 2 minutes. Compound A was then injected over the captured antibody at concentrations spanning 100-3 nM (100, 50, 25, 12.5, 6.25, 3.125 nM) (FIG. 10) and for screening concentrations spanning 100-3 nM (100, 33, 11 nM) for 2 minutes at a flow rate of 100 uL/min and allowed to dissociate for at least 450 seconds. The chip surface was regenerated after each cycle with a 40 second pulse of 10 mM Glycine, pH 1.5. Background binding to the protein A surface alone was used to subtract non-specific binding. All experiments were run on a Biacore T200 surface plasmon resonance instrument using Biacore T200 Control software v. 2. Data analysis was performed using Biacore T200 evaluation software v 3.1. Apparent affinities were determined for rank ordering only since dissociation rates were too slow to be measured by Biacore. The names of the mAbs in Table 10 refer to mAbs having the H and L chain sequences of the corresponding Fabs in Table 3 in an IgG1f format.

C[C@@H]1CCC[C@H](n2cnc(-c3cc(Cl)ccc3-n3cc(Cl)nn3)cc2=O)c2cc(ccn2)-c2c(cnn2C(F)F)NC1=O [Compound A, (5R,9S)-9-(4-(5-chloro-2-(4-chloro-1H-1,2,3-triazol-1-yl)phenyl)-6-oxopyrimidin-1(6H)-yl)-21-(difluoromethyl)-5-methyl-21H-3-aza-1(4,2)-pyridina-2(5,4)-pyrazolacyclononaphan-4-one, reference compound]
rabbit plasma aPTT increase relative to baseline [1]: approximately 2 fold

B1: 26D5-GVR-Q-FT-Fab-LONG mAb: IgG1f mAb called P1-072226, S31 in place of R31, i.e. 26D5-GV-Q (VH SEQ ID NO: 82, VL SEQ ID NO: 99) (antibody, V domains shown)
VH: EVQLVESGGGLIQPGGSLRLSCAASGFTVSSNYMSWVRQAPGKGLEWVSFIYSGGRTYYADSVKGRFTISRDNSKNTLYLQMNSLRAEDTAVYYCARGGFGGGDYWGQGTLVTVSS
VL: DIQMTQSPSSVSASVGDRVTITCRASQGISSWLAWYQQKPGKAPKLLIYAASSLQSGVPSRFSGSGSGTDFTLTISSLQPEDFATYYCQQANSFPLTFGGGTKVEIK
T0-T24 IC50 shift (Δ) [2]: 63 nM

B2: 26D5-75747-348-D07-mAb: human IgG1f/kappa mAb; VH SEQ ID NO: 57, VL SEQ ID NO: 90 (antibody, V domains shown)
VH: B1 VH with Y33A, M34F, F50Y, R97A, G98A
VL: B1 VL with W32Q, L33V, A50Y, A91G, S93E
Kd ([3]; apparent affinity, listed as 26D5-75747-0348-D07-mAb, read-out: KD): < 0.03 nM | Kd ([3]; apparent affinity, read-out: KD): < 0.02 nM | Ka ([3]; apparent): 2e+06 M⁻¹ s⁻¹ | Kd ([3]; apparent): <5e-05 s⁻¹ | T0-T24 IC50 shift (Δ) [2]: 4.3 nM

B3: P1-072963: IgG1f mAb format of first round optimization progeny 26D5-295-B08; VH SEQ ID NO: 60, VL SEQ ID NO: 88 (antibody, V domains shown)
VH: B1 VH with Y33A, S53P, G98A
VL: B1 VL with W32N
T0-T24 IC50 shift (Δ) [2]: 20.5 nM
